According to patent US12281340B2, “Method of producing N-acyl-amino group-containing compound” (AJINOMOTO CO., INC., priority 2018, dated 2025):

Experiments:
Assay type in all cases: biochemical
[1] = Synthesis of N-acylamino acids from various fatty acids using purified acylamino acid synthetase, UPLC-MS detection; design: key: +: Detected; −: Not detected
Summary of the method: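 Purified enzyme (200 μg/mL) with 5 mM amino acid, 5 mM sodium fatty acid (3 mM palmitate or stearate, plus 10% methanol), 10 mM ATP, 10 mM MgCl2, 1 mM DTT in 50 mM Tris-HCl pH 8.0, shaken 24 h at 25 °C. Amino acid varied by enzyme; product mass detected by UPLC-MS (ESI-negative).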

[2] = Synthesis of N-caprinoyl-amino acid derivative, N-caprinoyl-D-amino acid and N-caprinoyl-peptide using purified acylamino acid synthetase, UPLC-MS detection; design: key: +: Detected; −: Not detected; conditions: +ATP
Summary of the method: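 Purified enzyme (50 μg/mL) was incubated with 5 mM sodium caprate, 5 mM amino acid derivative, D-amino acid or peptide, 10 mM ATP, 10 mM MgCl2 and 1 mM DTT in 50 mM Tris-HCl, pH 8.0, for 24 h at 25 °C. After acidic methanol stop, UPLC-MS looked for the mass of the N-caprinoyl product.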

[3] = Quantification of produced N-acylamino acid (UV 210 nm) using purified acylamino acid synthetase; conditions: 5 mM L-Asp, 5 mM sodium fatty acid, 200 μg/mL enzyme, 25° C., 24 hours
Description: 0.1 mL of a reaction solution containing 50 mM Tris-HCl, 5 mM amino acid, 5 mM sodium fatty acid, 10 mM ATP, 10 mM MgCl2, 1 mM DTT, 200 μg/mL of the purified enzyme, pH 8.0 was incubated at 25° C. for 24 hours. As amino acids, L-Asp was used in AtGH3-6, OsGH3-8, AtGH3-5, AtGH3-12, and Gly or L-Ala was used in CfHP. After completion of the reaction, 0.4 mL of the reaction stop solution (1% (v/v) phosphoric acid, 75% (v/v) methanol) was added, and the mixture was filtrated through the filter followed by being subjected to the UPLC-MS analysis to quantify the produced N-acylamino acid by detection at UV 210 nm. The condition for the UPLC-MS analysis is as descried in Example 2. As a result of the analysis, 3.9 mM of Nα-capryloyl-L-aspartic acid, 4.5 mM of Nα-caprinoyl-L-aspartic acid and 2.2 mM of Nα-lauroyl-L-aspartic acid were detected when AtGH3-6 was used; 4.3 mM of Nα-capryloyl-L-aspartic acid, 4.6 mM of Nα-caprinoyl-L-aspartic acid and 3.5 mM of Nα-lauroyl-L-aspartic acid were detected when OsGH3-8 was used; 4.1 mM of Nα-capryloyl-L-aspartic acid, 4.6 mM of Nα-caprinoyl-L-aspartic acid and 2.5 mM of Nα-lauroyl-L-aspartic acid were detected when AtGH3-5 was used; 1.6 mM of Nα-capryloyl-L-aspartic acid, 0.6 mM of Nα-caprinoyl-L-aspartic acid and 0.2 mM of Nα-lauroyl-L-aspartic acid were detected when AtGH3-12 was used; 4.5 mM of Nα-capryloylglycine, 4.6 mM of Nα-caprinoylglycine, 0.1 mM of Nα-lauroylglycine, 3.1 mM of Nα-capryloyl-L-alanine, 3.6 mM of Nα-caprinoyl-L-alanine and 0.4 mM of Nα-lauroyl-L-alanine were detected when CfHP was used.

[4] = Synthesis of N-lauroylamino acid / N-lauroylamino acid derivative using purified acylamino acid synthetase, UPLC-MS detection; design: key: +: Detected; −: Not detected; conditions: +ATP
Description: 0.2 mL of a reaction solution containing 50 mM Tris-HCl, 5 mM amino acid or D-amino acid derivative, 5 mM sodium laurate, 10 mM ATP, 10 mM MgCl2, 1 mM DTT, 200 μg/mL of the purified enzyme, pH 8.0 was incubated at 25° C. for 24 hours. After completion of the reaction, 0.8 mL of the reaction stop solution (1% (v/v) phosphoric acid, 75% (v/v) methanol) was added, and the mixture was filtrated through the filter followed by being subjected to the UPLC-MS analysis to detect a signal of a molecular weight corresponding to an N-lauroyl-amino acid or an N-lauroyl-amino acid derivative. The condition for the UPLC-MS analysis is as described in Example 2.
As a result of the UPLC-MS analysis, the signal of the molecular weight corresponding to the N-lauroyl-amino acid or the N-lauroyl-amino acid derivative was confirmed in the reaction solution containing the enzyme in combination with the amino acid or the amino acid derivative shown in Table 5 below.

[5] = substrates L-Asp and Capric acid
[6] = substrates L-Asp and Caproic acid
[7] = substrates L-Asp and Caprylic acid
[8] = substrates L-Asp and Lauric acid
[9] = substrates L-Asp and Linoleic acid
[10] = substrates L-Asp and Palmitic acid
[11] = substrates L-Asp and myristic acid
[12] = substrates Carnosine and sodium caprate
[13] = substrates D-Ala and sodium caprate
[14] = substrates D-Asp and sodium caprate
[15] = substrates D-Cys and sodium caprate
[16] = substrates D-Glu and sodium caprate
[17] = substrates D-Ile and sodium caprate
[18] = substrates D-Lys and sodium caprate
[19] = substrates L-Asp-L-Phe and sodium caprate
[20] = substrates L-Gly-L-Gly and sodium caprate
[21] = substrates Sarcosine and sodium caprate
[22] = substrates Taurine and sodium caprate
[23] = substrates Gly and sodium laurate
[24] = substrates L-Ala and sodium laurate
[25] = substrates L-Arg and sodium laurate
[26] = substrates L-Asp and sodium laurate
[27] = substrates L-Glu and sodium laurate
[28] = substrates L-Lys and sodium laurate
[29] = substrates L-Thr and sodium laurate
[30] = substrates β-Ala and sodium laurate

B1: OsGH3-8: probable indole-3-acetic acid-amido synthetase GH3.8 from Oryza sativa, expressed in E. coli with N-terminal His-tag (protein, listed as Oryza sativa)
chain: MAVMTDVSTTGTALRTPAAGAVKEGDVEKLRFIDEMTTNVDAVQERVLGEILGRNAGTEYLTKCGLDGATDRAAFRAKVPVVSYDDLQPYIQRIANGDRSPILSTHPVSEFLTSSGTSAGERKLMPTIMDELDRRQLLYSLLMPVMNLYVPGLDKGKGLYFLFVKSETKTPGGLTARPVLTSYYKSDHFKNRPYDPYHNYTSPTAAILCADAFQSMYAQMVCGLCQRNDVLRLGAVFASGLLRAIRFLQLNWEQLADDIESGELTPRVTDPSVREAVAAILLPDPELAKLIRAECSKGDWAGIITRVWPNTKYLDVIVTGAMAQYIPTLEFYSGGLPMACTMYASSECYFGLNLRPMCDPSEVSYTIMPNMGYFEFLPVDETGAASGDATQLVDLARVEVGREYELVITTYAGLNRYRVGDVLRVTGFHNAAPQFRFVRRKNVLLSIESDKTDEAELQRAVERASALLRPHGASVVEYTSQACTKRIPGHYVIYWELLTKGAGATVVDADTLGRCCLEMEEALNTVYRQSRVADGSIGPLEIRVVRPGTFEELMDYAISRGASINQYKVPRCVTFPPIVELLDSRVVSSHFSPALPHWTPARRSE
modifications: N-terminal His-tag
notes: probable indole-3-acetic acid-amido synthetase GH3.8 from Oryza sativa, expressed in E. coli with N-terminal His-tag
3.5 mM: Nα-lauroyl-L-aspartic acid detected [3]
−: signal of molecular weight corresponding to N-acylamino acid [1, 9]
+: signal of molecular weight corresponding to N-acylamino acid [1, 5] | signal of molecular weight corresponding to N-acylamino acid [1, 6] | signal of molecular weight corresponding to N-acylamino acid [1, 7] | signal of molecular weight corresponding to N-acylamino acid [1, 8] | signal of molecular weight corresponding to N-acylamino acid [1, 10] | signal of molecular weight corresponding to N-acylamino acid [1, 11] | signal of molecular weight corresponding to N-caprinoyl compound [2, 12] | signal of molecular weight corresponding to N-caprinoyl compound [2, 13] | signal of molecular weight corresponding to N-caprinoyl compound [2, 14] | signal of molecular weight corresponding to N-caprinoyl compound [2, 15] | signal of molecular weight corresponding to N-caprinoyl compound [2, 16] | signal of molecular weight corresponding to N-caprinoyl compound [2, 17] | signal of molecular weight corresponding to N-caprinoyl compound [2, 18] | signal of molecular weight corresponding to N-caprinoyl compound [2, 19] | signal of molecular weight corresponding to N-caprinoyl compound [2, 20] | signal of molecular weight corresponding to N-caprinoyl compound [2, 21] | signal of molecular weight corresponding to N-caprinoyl compound [2, 22] | signal of molecular weight corresponding to N-lauroyl amino acid [4, 23] | signal of molecular weight corresponding to N-lauroyl amino acid [4, 24] | signal of molecular weight corresponding to N-lauroyl amino acid [4, 25] | signal of molecular weight corresponding to N-lauroyl amino acid [4, 26] | signal of molecular weight corresponding to N-lauroyl amino acid [4, 27] | signal of molecular weight corresponding to N-lauroyl amino acid [4, 28] | signal of molecular weight corresponding to N-lauroyl amino acid [4, 29] | signal of molecular weight corresponding to N-lauroyl amino acid [4, 30]
4.3 mM: Nα-capryloyl-L-aspartic acid detected [3]
4.6 mM: Nα-caprinoyl-L-aspartic acid detected [3]

B2: AtGH3-6: indole-3-acetic acid-amido synthetase GH3.6 from Arabidopsis thaliana, expressed in E. coli with N-terminal His-tag (protein, listed as Arabidopsis thaliana)
chain: MPEAPKIAALEVSDESLAEKNKNKLQFIEDVTTNADDVQRRVLEEILSRNADVEYLKRHGLEGRTDRETFKHIMPVVTYEDIQPEINRIANGDKSQVLCSNPISEFLTSSGTSGGERKLMPTIEEELDRRSLLYSLLMPVMDQFVPGLDKGKGMYFLFIKSESKTPGGLPARPVLTSYYKSSHFKNRPYDPYTNYTSPNQTILCSDSYQSMYSQMLCGLCQHKEVLRVGAVFASGFIRAIKFLEKHWPELARDIRTGTLSSEITDSSVREAVGEILKPDPKLADFVESECRKTSWQGIITRLWPNTKYVDVIVTGTMSQYIPTLDYYSNGLPLVCTMYASSECYFGVNLRPLCKPSEVSYTLIPNMAYFEFLPVHRNSGVTSSISLPKALTEKEQQELVDLVDVKLGQEYELVVTTYAGLYRYRVGDVLSVAGFKNNAPQFSFICRKNVVLSIDSDKTDEVELQNAVKNAVTHLVPFDASLSEYTSYADTSSIPGHYVLFWELCLNGNTPIPPSVFEDCCLTIEESLNSVYRQGRVSDKSIGPLEIKMVESGTFDKLMDYAISLGASINQYKTPRCVKFAPIIELLNSRVVDSYFSPKCPKWSPGHKQWGSN
modifications: N-terminal His-tag
notes: indole-3-acetic acid-amido synthetase GH3.6 from Arabidopsis thaliana, expressed in E. coli with N-terminal His-tag
−: signal of molecular weight corresponding to N-acylamino acid [1, 9]
2.2 mM: Nα-lauroyl-L-aspartic acid detected [3]
3.9 mM: Nα-capryloyl-L-aspartic acid detected [3]
4.5 mM: Nα-caprinoyl-L-aspartic acid detected [3]
+: signal of molecular weight corresponding to N-acylamino acid [1, 5] | signal of molecular weight corresponding to N-acylamino acid [1, 6] | signal of molecular weight corresponding to N-acylamino acid [1, 7] | signal of molecular weight corresponding to N-acylamino acid [1, 8] | signal of molecular weight corresponding to N-acylamino acid [1, 10] | signal of molecular weight corresponding to N-acylamino acid [1, 11] | signal of molecular weight corresponding to N-caprinoyl compound [2, 12] | signal of molecular weight corresponding to N-caprinoyl compound [2, 13] | signal of molecular weight corresponding to N-caprinoyl compound [2, 14] | signal of molecular weight corresponding to N-caprinoyl compound [2, 15] | signal of molecular weight corresponding to N-caprinoyl compound [2, 16] | signal of molecular weight corresponding to N-caprinoyl compound [2, 17] | signal of molecular weight corresponding to N-caprinoyl compound [2, 18] | signal of molecular weight corresponding to N-caprinoyl compound [2, 19] | signal of molecular weight corresponding to N-caprinoyl compound [2, 20] | signal of molecular weight corresponding to N-caprinoyl compound [2, 21] | signal of molecular weight corresponding to N-caprinoyl compound [2, 22] | signal of molecular weight corresponding to N-lauroyl amino acid [4, 23] | signal of molecular weight corresponding to N-lauroyl amino acid [4, 24] | signal of molecular weight corresponding to N-lauroyl amino acid [4, 25] | signal of molecular weight corresponding to N-lauroyl amino acid [4, 26] | signal of molecular weight corresponding to N-lauroyl amino acid [4, 27] | signal of molecular weight corresponding to N-lauroyl amino acid [4, 28] | signal of molecular weight corresponding to N-lauroyl amino acid [4, 29] | signal of molecular weight corresponding to N-lauroyl amino acid [4, 30]
